Results published in patent publication CN116836278A.
One block for each molecule: values may come before it.

Key:
[1] = biological target: Prog-Albumin偶联物(购自益缪诺，货号PROGO2); test: indirect ELISA, Prog-Albumin conjugate coated at 3 ug/ml, antibody at 31.25 ng/ml
[2] = biological target: Prog-Albumin偶联物(购自益缪诺，货号PROGO2); test: indirect ELISA, Prog-Albumin conjugate coated at 3 ug/ml, antibody at 15.625 ng/ml
[3] = biological target: Prog-Albumin偶联物(购自益缪诺，货号PROGO2); test: biolayer interferometry, AMC sensor, antibody immobilised at 10 ug/ml, Prog-Albumin conjugate in dilution series
[4] = biological target: Prog-Albumin偶联物(购自益缪诺，货号PROGO2); test: indirect ELISA, Prog-Albumin conjugate coated at 3 ug/ml, antibody at 62.5 ng/ml
[5] = biological target: Prog-Albumin偶联物(购自益缪诺，货号PROGO2); test: indirect ELISA, Prog-Albumin conjugate coated at 3 ug/ml, antibody at 250 ng/ml
[6] = biological target: Prog-Albumin偶联物(购自益缪诺，货号PROGO2); test: indirect ELISA, Prog-Albumin conjugate coated at 3 ug/ml, antibody at 125 ng/ml

- OD450 [1]: 0.319 OD
- OD450 [2]: 0.148 OD
- Kd [3]: 9.12 nM
- koff [3]: 0.0002 s⁻¹
- kon [3]: 21900 M⁻¹ s⁻¹
- OD450 [4]: 0.686 OD
- OD450 [5]: 2.19 OD
- OD450 [6]: 1.85 OD
Molecule: 对照 (antibody)

- OD450 [1]: 0.566 OD
- OD450 [2]: 0.32 OD
- Kd [3]: 0.168 nM
- koff [3]: 0.00032 s⁻¹
- kon [3]: 1.91e+06 M⁻¹ s⁻¹
- OD450 [4]: 0.94 OD
- OD450 [5]: 2.22 OD
- OD450 [6]: 1.92 OD
B1: Anti-Prog-5B3mut1 (antibody, V domains shown)
VH: QVRLQESGPSLVKPSQTLSLTCTVSGFELTSKAVGWVRQAPGKVPEWLGSIVSGGATYYDPALKSRLTITRDTSKSQVSLSISSVSSEDTAEYWCVRASYAAGIWYFDYWGPGLLVTVSS
VL: QAVLTQPPSVSGSLGQRVSLTCSGSSTNIGGGSYVHWYQRLPASGLKTIIYGTSRRPSGVPDRFSGSRSGNTATLTITSLQAEDEADYYCATEDSGSYPFGSGTRLTVLG

- OD450 [1]: 0.603 OD
- OD450 [2]: 0.36 OD
- Kd [3]: 0.33 nM
- koff [3]: 0.00027 s⁻¹
- kon [3]: 819000 M⁻¹ s⁻¹
- OD450 [4]: 1.07 OD
- OD450 [5]: 2.36 OD
- OD450 [6]: 2.06 OD
B2: Anti-Prog-5B3mut2 (antibody, part only; not given: light chain, part only)
heavy: QVRLQESGPSLVKPSQTLSLTCTVSGFELTSKAVGWVRQAPGKVPEWLGSIVSGGATYYDPALKSRLTITRDTSKSQVSLSISSVSSEDTAEYWCVRASYAAGIWYFDYWGPGLLVTVSSASTTPPKVYPLTSCCGDTSSSIVTLGCLVSSYMPEPVTVTWNSGALTSGVHTFPAILQSSGLYSLSSVVTVPASTSGAQTFICNVAHPASSTKVDKRVGLSSDYSKCSKPPCVSRPSVFIFPPKPKDSLMITGTPEVTCVVVDVGQGDPEVQFSWFVDNVEVRTARTKPREEQFNSTFRVVSALPIQHDHWTGGKEFKCKVHSKGLPAPLVRTISRAKGQAREPQVYVLAPPQEELSKSTLSVTCLVTGFYPDYIAVEWQRARQPESEDKYGTTTSQLDADGSYFLYSRLRVDKSSWQRGDTYACVVMHEALHNHYTQKSISKPPGK
